The record followed here is doi:10.1101/2022.04.18.488654, “The DNA replication initiation protein DnaD is recruited to a specific strand of the Bacillus subtilis chromosome origin” (bioRxiv, 2022).

Data set [1] concerns the molecule itself. The data set can be described thus: SEC-MALS; purified DnaD variants; 20°C; 40 mM Tris-HCl pH 8, 500 mM NaCl, 1 mM EDTA, 20 mM imidazole, 2.5% v/v glycerol.
Data set [2] concerns the molecule itself. The data set can be described thus: SEC; Superdex 200 Increase 10/300GL, 4°C; 40 mM Tris-HCl pH 8, 500 mM NaCl, 1 mM EDTA, 20 mM imidazole. In general terms: Size exclusion chromatography separates by hydrodynamic size, large species first.
The next data set concerns the target T1, DnaD L22A (Bacillus subtilis 168CA, UniProt P39787 1-232, L22A).
T1 sequence: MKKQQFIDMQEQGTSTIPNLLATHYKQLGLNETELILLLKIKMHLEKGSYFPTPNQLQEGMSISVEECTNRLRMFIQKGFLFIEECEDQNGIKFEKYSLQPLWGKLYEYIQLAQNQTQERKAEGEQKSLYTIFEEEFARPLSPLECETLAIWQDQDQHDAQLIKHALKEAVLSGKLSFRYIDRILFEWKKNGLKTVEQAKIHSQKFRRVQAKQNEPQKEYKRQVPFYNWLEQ
Description: fluorescence polarisation; FP: 10 mM HEPES-KOH pH 7.5, 1 mM Mg acetate, 100 mM K glutamate, 20 C, 10 min, 1.875 nM DNA; crosslinking buffer not in material. Particulars: protein: recombinant; tags: His14-SUMO tag cleaved; label: fluorescein. In general terms: Fluorescence polarisation rises when a labelled molecule tumbles more slowly, as on binding a larger partner.

A further data set addresses T2, DnaD F6A (Bacillus subtilis 168CA, UniProt P39787 1-232, F6A).
T2 sequence: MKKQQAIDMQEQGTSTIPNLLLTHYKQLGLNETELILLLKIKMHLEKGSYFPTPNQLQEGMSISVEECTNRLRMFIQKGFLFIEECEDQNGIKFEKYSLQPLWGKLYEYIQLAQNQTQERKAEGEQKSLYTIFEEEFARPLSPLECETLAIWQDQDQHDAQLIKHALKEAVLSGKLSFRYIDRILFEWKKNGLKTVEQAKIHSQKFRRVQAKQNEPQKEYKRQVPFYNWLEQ
The data set can be described thus: fluorescence polarisation; similar to WT; FP: 10 mM HEPES-KOH pH 7.5, 1 mM Mg acetate, 100 mM K glutamate, 20 C, 10 min, 1.875 nM DNA; crosslinking buffer not in material. Particulars: protein: recombinant; tags: His14-SUMO tag cleaved; chain copies: 2; label: fluorescein.

B1: DnaD (wild-type, Bacillus subtilis DNA replication initiation protein) (natural protein, UniProt P39787 1-232, looked up)
chain: MKKQQFIDMQEQGTSTIPNLLLTHYKQLGLNETELILLLKIKMHLEKGSYFPTPNQLQEGMSISVEECTNRLRMFIQKGFLFIEECEDQNGIKFEKYSLQPLWGKLYEYIQLAQNQTQERKAEGEQKSLYTIFEEEFARPLSPLECETLAIWQDQDQHDAQLIKHALKEAVLSGKLSFRYIDRILFEWKKNGLKTVEQAKIHSQKFRRVQAKQNEPQKEYKRQVPFYNWLEQ
notes: DnaD, Bacillus subtilis 168CA, amplified from genomic DNA; full-length protein; Tetramer by SEC-MALS and SEC; in the cryo-EM map only a dimer was seen; also called wild-type DnaD; full length DnaD; source: E. coli BL21(DE3)-pLysS, purified (HisTrap, SUMO protease digestion, reverse HisTrap)
Consider B1, for which the stoichiometry N (as a rule, a count of units in the complex or per binding partner) in data set [1] amounted to 4.

B2: DnaD^1-224 (truncation lacking the DnaB interaction region, the last eight residues) (domain or fragment, Bacillus subtilis, UniProt P39787 1-224, looked up)
chain: MKKQQFIDMQEQGTSTIPNLLLTHYKQLGLNETELILLLKIKMHLEKGSYFPTPNQLQEGMSISVEECTNRLRMFIQKGFLFIEECEDQNGIKFEKYSLQPLWGKLYEYIQLAQNQTQERKAEGEQKSLYTIFEEEFARPLSPLECETLAIWQDQDQHDAQLIKHALKEAVLSGKLSFRYIDRILFEWKKNGLKTVEQAKIHSQKFRRVQAKQNEPQKEYKRQV
notes: DnaD, Bacillus subtilis 168CA, residues 1-224 (lacks the last eight amino acid residues of the C-terminal tail); also called C-terminal truncation; source: E. coli BL21(DE3)-pLysS, purified (HisTrap, SUMO protease digestion, reverse HisTrap)
For B2, the “stoichiometry N” value in data set [2] came out at 4. TTTTTTTTTTTTTTTTTTTTTTTTTTTTTTTTTTTTTTTT (ssDNA) [polyT40 (oCW837)]: in the data set with DnaD L22A, the binding result is on record as “no binding”. Turning to TTTTTTTTTTTTTTTTTT (ssDNA) [polyT18 (oCW1088)], the binding result with DnaD F6A was “binds”; with DnaD L22A, “no binding”.

B3: DnaD^1-205 (truncation lacking the entire C-terminal tail) (domain or fragment, Bacillus subtilis, UniProt P39787 1-205, looked up)
chain: MKKQQFIDMQEQGTSTIPNLLLTHYKQLGLNETELILLLKIKMHLEKGSYFPTPNQLQEGMSISVEECTNRLRMFIQKGFLFIEECEDQNGIKFEKYSLQPLWGKLYEYIQLAQNQTQERKAEGEQKSLYTIFEEEFARPLSPLECETLAIWQDQDQHDAQLIKHALKEAVLSGKLSFRYIDRILFEWKKNGLKTVEQAKIHSQK
notes: DnaD, Bacillus subtilis 168CA, residues 1-205 (entire C-terminal tail removed); also called truncation of the DnaD^CTT; source: E. coli BL21(DE3)-pLysS, purified (HisTrap, SUMO protease digestion, reverse HisTrap)
As for B3, in data set [1], the “stoichiometry N” value came to 4.
